Reference: patent US20130251728A1

How the values were obtained:
[1] = target: mouse GCGR (full-length, on HEK293 reporter cells) (mouse) (UniProt Q61606); assay: cell-based or functional assay
[2] = target: rat GCGR (full-length, on transiently transfected HEK293 reporter cells) (rat) (UniProt P30082); assay: cell-based or functional assay
rat GCGR (full-length, on transiently transfected HEK293 reporter cells) (rat), sequence (P30082 27-485 limits assumed): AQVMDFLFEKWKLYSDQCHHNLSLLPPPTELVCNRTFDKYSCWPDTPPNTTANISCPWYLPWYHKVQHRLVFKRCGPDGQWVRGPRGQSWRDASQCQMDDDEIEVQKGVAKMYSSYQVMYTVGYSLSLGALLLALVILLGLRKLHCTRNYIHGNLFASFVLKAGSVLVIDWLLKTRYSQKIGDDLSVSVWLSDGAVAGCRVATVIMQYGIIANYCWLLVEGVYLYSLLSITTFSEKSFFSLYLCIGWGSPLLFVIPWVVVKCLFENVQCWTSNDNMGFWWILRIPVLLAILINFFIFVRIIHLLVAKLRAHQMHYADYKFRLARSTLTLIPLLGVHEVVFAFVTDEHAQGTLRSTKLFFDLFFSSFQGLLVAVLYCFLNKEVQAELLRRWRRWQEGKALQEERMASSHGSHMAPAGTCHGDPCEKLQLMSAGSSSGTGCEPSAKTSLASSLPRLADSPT

mouse GCGR (full-length, on HEK293 reporter cells) (mouse), sequence (Q61606 27-485 limits assumed): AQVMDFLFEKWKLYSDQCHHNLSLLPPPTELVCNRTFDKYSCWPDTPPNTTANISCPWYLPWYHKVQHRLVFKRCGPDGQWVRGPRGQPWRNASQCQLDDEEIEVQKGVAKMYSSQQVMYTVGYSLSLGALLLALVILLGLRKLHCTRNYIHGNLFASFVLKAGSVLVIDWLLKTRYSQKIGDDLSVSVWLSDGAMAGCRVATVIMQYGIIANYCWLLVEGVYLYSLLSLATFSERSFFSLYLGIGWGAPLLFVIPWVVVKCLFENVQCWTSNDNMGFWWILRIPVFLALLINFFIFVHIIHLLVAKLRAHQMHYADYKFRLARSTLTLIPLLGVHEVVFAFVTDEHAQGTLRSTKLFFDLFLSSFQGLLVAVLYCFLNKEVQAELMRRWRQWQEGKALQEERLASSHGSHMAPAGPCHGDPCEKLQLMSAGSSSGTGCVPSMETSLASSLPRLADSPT

glucagon (GCG) (from UniProt P01275 53-81) (ligand)
EC50, luciferase activity in HEK293/mGCGR reporter cells [1]: 0.083 nM | EC50, luciferase activity in HEK293 reporter cells transfected with rat GCGR [2]: 0.252 nM
